# Results as given in IntAct's records for PubMed 17128263.
# B1: 1-phosphatidylinositol 4,5-bisphosphate phosphodiesterase gamma-1 (Rattus norvegicus (Rat)), P10686 (parent)
# chain: MAGVGTPCANGCGPSAPSEAEVLHLCRSLEVGTVMTLFYSKKSQRPERKTFQVKLETRQITWSRGADKIEGSIDIREIKEIRPGKTSRDFDRYQEDPAFRPDQSHCFVILYGMEFRLKTLSLQATSEDEVNMWIKGLTWLMEDTLQAATPLQIERWLRKQFYSVDRNREDRISAKDLKNMLSQVNYRVPNMRFLRERLTDFEQRSGDITYGQFAQLYRSLMYSAQKTMDLPFLETNTLRTGERPELCQVSLSEFQQFLLEYQGELWAVDRLQVQEFMLSFLRDPLREIEEPYFFLDELVTFLFSKENSVWNSQLDAVCPETMNNPLSHYWISSSHNTYLTGDQFSSESSLEAYARCLRMGCRCIELDCWDGPDGMPVIYHGHTLTTKIKFSDVLHTIKEHAFVASEYPVILSIEDHCSIAQQRNMAQHFRKVLGDTLLTKPVDIAADGLPSPNQLKRKILIKHKKLAEGSAYEEVPTSVMYSENDISNSIKNGILYLEDPVNHEWYPHYFVLTSSKIYYSEETSSDQGNEDEEEPKEASGSTELHSSEKWFHGKLGAGRDGRHIAERLLTEYCIETGAPDGSFLVRESETFVGDYTLSFWRNGKVQHCRIHSRQDAGTPKFFLTDNLVFDSLYDLITHYQQVPLRCNEFEMRLSEPVPQTNAHESKEWYHASLTRAQAEHMLMRVPRDGAFLVRKRNEPNSYAISFRAEGKIKHCRVQQEGQTVMLGNSEFDSLVDLISYYEKHPLYRKMKLRYPINEEALEKIGTAEPDYGALYEGRNPGFYVEANPMPTFKCAVKALFDYKAQREDELTFTKSAIIQNVEKQDGGWWRGDYGGKKQLWFPSNYVEEMINPAILEPEREHLDENSPLGDLLRGVLDVPACQIAIRPEGKNNRLFVFSISMPSVAQWSLDVAADSQEELQDWVKKIREVAQTADARLTEGKMMERRKKIALELSELVVYCRPVPFDEEKIGTERACYRDMSSFPETKAEKYVNKAKGKKFLQYNRLQLSRIYPKGQRLDSSNYDPLPMWICGSQLVALNFQTPDKPMQMNQALFMAGGHCGYVLQPSTMRDEAFDPFDKSSLRGLEPCVICIEVLGARHLPKNGRGIVCPFVEIEVAGAEYDSTKQKTEFVVDNGLNPVWPAKPFHFQISNPEFAFLRFVVYEEDMFSDQNFLAQATFPVKGLKTGYRAVPLKNNYSEDLELASLLIKIDIFPAKENGDLSPFSGTSLRERASDASSQLFHVRAREGSFEARYQQPFEDFRISQEHLADHFDSRERRAPRRTRVNGDNRL
# partner: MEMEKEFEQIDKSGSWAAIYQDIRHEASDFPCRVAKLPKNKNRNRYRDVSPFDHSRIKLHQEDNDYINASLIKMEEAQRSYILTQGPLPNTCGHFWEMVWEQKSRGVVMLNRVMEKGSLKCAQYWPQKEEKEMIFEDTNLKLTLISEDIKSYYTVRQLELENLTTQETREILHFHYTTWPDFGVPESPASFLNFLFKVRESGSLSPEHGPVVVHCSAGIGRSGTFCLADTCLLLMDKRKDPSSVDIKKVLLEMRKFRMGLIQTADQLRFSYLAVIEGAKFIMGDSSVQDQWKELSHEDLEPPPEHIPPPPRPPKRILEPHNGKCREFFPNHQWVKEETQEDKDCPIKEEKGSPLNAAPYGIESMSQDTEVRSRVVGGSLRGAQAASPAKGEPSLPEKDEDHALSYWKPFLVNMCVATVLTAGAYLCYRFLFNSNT
# B2: 1-phosphatidylinositol 4,5-bisphosphate phosphodiesterase gamma-1 (Rattus norvegicus (Rat)), P10686 (parent)
# chain: B1 chain
# Variants of: B1
# Conditions: with ptn1_human PTPN1, P18031
row,Variant,effect of a mutation on the interaction
1,P842K,disrupting interaction

# Variants of: B1
# Conditions: with ptn1_human PTPN1, P18031
# Remark: another data set of the same source
row,Variant,effect of a mutation on the interaction
1,R586K,disrupting interaction

# Variants of: B2
# Conditions: with jak2_mouse Jak2, Q62120
row,Variant,effect of a mutation on the interaction
1,R586K,disrupting interaction
